Measurements published in PMC3889140 (Bioorganic & medicinal chemistry letters, 2013).
Entries after “also recorded” stand apart in the source; their conditions may differ. Positions of bridges follow the written chain, without caps; N, C: chain ends. Non-standard residues stand in square brackets, D forms with d. Residues, ends and D or L forms follow the SMILES beside them.

Columns and labels:
B16/F1 melanoma cells = experiment: Cellular internalization in B16/F1 melanoma cells; assay type: cell-based, murine
in vivo = experiment: in vivo; design: species or system C57 mice; conditions: C57, mouse, iv, total radioactivity; for tissue uptake dose at 2 h: percent injected dose
[1] = test system: B16/F1 melanoma-bearing C57 mouse; experiment: SPECT/CT melanoma imaging; assay type: in vivo; conditions: flank B16/F1 melanoma, 2 h post-injection, about 7.4 MBq, one mouse
[2] = 0.037 MBq, Kidneys (renal) uptake
[3] = 0.037 MBq, Uptake ratio Tumor/Lung

Which activity internalized (B16/F1 melanoma cells; 20 min post incubation) does the source give for CC(C)[C@H](NC(=O)[C@@H]1CCCN1C(=O)[C@H](CCCNC(=N)N)NC(=O)[C@H](CS)NC(=O)[C@H](Cc1c[nH]c2ccccc12)NC(=O)[C@H](CCCNC(=N)N)NC(=O)[C@@H](Cc1ccccc1)NC(=O)[C@H](Cc1c[nH]cn1)NC(=O)[C@H](CCC(=O)O)NC(=O)[C@H](CS)NC(=O)[C@H](CS)NC(=O)[C@H](CCCNC(=N)N)NC(=O)[C@@H]1CC(=O)N[C@@H](CCCNC(=N)N)C(=O)N[C@@H](C)C(=O)N[C@@H](CC(=O)O)C(=O)N[C@H](Cc2ccc(O)cc2)C(=O)N1)C(N)=O [^99mTc-RAD-Arg-(Arg^11)CCMSH, metal not drawn] (RAD[dY]DRCCEH[dF]RWCRPV-NH2; lactam N-5; C-terminus assumed) here?
Its activity internalized is “Approximately 77.81 ± 4.46%”.

And the activity internalized (B16/F1 melanoma cells; after 2 h incubation)?
Its activity internalized is 81.26 ± 4.81%.

What about the tissue uptake at 0.5 h (in vivo; 0.037 MBq, Blood uptake) of the same compound?
The tissue uptake at 0.5 h was 3.43 ± 0.37 %ID/g.

What about the tissue uptake at 2 h (in vivo; 0.037 MBq, Blood uptake) of the same compound?
Its tissue uptake at 2 h is 0.59 ± 0.17 %ID/g.

What about the tissue uptake at 4 h (in vivo; 0.037 MBq, Blood uptake) of the same compound?
Its tissue uptake at 4 h is 0.1 ± 0.06 %ID/g.

What about the tissue uptake at 24 h (in vivo; 0.037 MBq, Blood uptake) of the same compound?
Its tissue uptake at 24 h is 0.04 ± 0.01 %ID/g.

And the tissue uptake at 0.5 h (in vivo; 0.037 MBq, Bone uptake)?
Its tissue uptake at 0.5 h is 1.97 ± 0.22 %ID/g.

And the tissue uptake at 2 h (in vivo; 0.037 MBq, Bone uptake)?
Its tissue uptake at 2 h is 0.64 ± 0.25 %ID/g.

What about the tissue uptake at 4 h (in vivo; 0.037 MBq, Bone uptake) of the same compound?
The tissue uptake at 4 h was 0.34 ± 0.13 %ID/g.

And the tissue uptake at 24 h (in vivo; 0.037 MBq, Bone uptake)?
Its tissue uptake at 24 h is 0.14 ± 0.04 %ID/g.

And the tissue uptake at 0.5 h (in vivo; 0.037 MBq, Brain uptake)?
The tissue uptake at 0.5 h was 0.16 ± 0.04 %ID/g.

What about the tissue uptake at 2 h (in vivo; 0.037 MBq, Brain uptake) of the same compound?
Its tissue uptake at 2 h is 0.04 ± 0.02 %ID/g.

What about the tissue uptake at 4 h (in vivo; 0.037 MBq, Brain uptake) of the same compound?
The tissue uptake at 4 h was 0.02 ± 0.02 %ID/g.

What about the tissue uptake at 24 h (in vivo; 0.037 MBq, Brain uptake) of the same compound?
Its tissue uptake at 24 h is 0.02 %ID/g.

And the tissue uptake at 0.5 h (in vivo; 0.037 MBq, Heart uptake)?
The tissue uptake at 0.5 h was 1.71 ± 0.58 %ID/g.

And the tissue uptake at 2 h (in vivo; 0.037 MBq, Heart uptake)?
The tissue uptake at 2 h was 0.5 ± 0.14 %ID/g.

And the tissue uptake at 4 h (in vivo; 0.037 MBq, Heart uptake)?
Its tissue uptake at 4 h is 0.21 ± 0.03 %ID/g.

What about the tissue uptake at 24 h (in vivo; 0.037 MBq, Heart uptake) of the same compound?
Its tissue uptake at 24 h is 0.1 ± 0.02 %ID/g.

And the tissue uptake at 0.5 h (in vivo; [2])?
The tissue uptake at 0.5 h was 41.2 ± 4.48 %ID/g.

And the tissue uptake at 2 h (in vivo; [2])?
Its tissue uptake at 2 h is 35.6 ± 9.61 %ID/g.

What about the tissue uptake at 4 h (in vivo; [2]) of the same compound?
Its tissue uptake at 4 h is 26.5 ± 0.62 %ID/g.

What about the tissue uptake at 24 h (in vivo; [2]) of the same compound?
The tissue uptake at 24 h was 12 ± 2.29 %ID/g.

And the tissue uptake at 0.5 h (in vivo; 0.037 MBq, Liver uptake)?
Its tissue uptake at 0.5 h is 3.07 ± 0.08 %ID/g.

What about the tissue uptake at 2 h (in vivo; 0.037 MBq, Liver uptake) of the same compound?
Its tissue uptake at 2 h is 1.88 ± 0.35 %ID/g.

What about the tissue uptake at 4 h (in vivo; 0.037 MBq, Liver uptake) of the same compound?
The tissue uptake at 4 h was 1.47 ± 0.11 %ID/g.

What about the tissue uptake at 24 h (in vivo; 0.037 MBq, Liver uptake) of the same compound?
The tissue uptake at 24 h was 1.18 ± 0.28 %ID/g.

What about the tissue uptake at 0.5 h (in vivo; 0.037 MBq, Lung uptake) of the same compound?
Its tissue uptake at 0.5 h is 5.42 ± 0.7 %ID/g.

What about the tissue uptake at 2 h (in vivo; 0.037 MBq, Lung uptake) of the same compound?
Its tissue uptake at 2 h is 1.15 ± 0.22 %ID/g.

What about the tissue uptake at 4 h (in vivo; 0.037 MBq, Lung uptake) of the same compound?
The tissue uptake at 4 h was 0.4 ± 0.16 %ID/g.

And the tissue uptake at 24 h (in vivo; 0.037 MBq, Lung uptake)?
Its tissue uptake at 24 h is 0.16 ± 0.03 %ID/g.

What about the tissue uptake at 0.5 h (in vivo; 0.037 MBq, Muscle uptake) of the same compound?
Its tissue uptake at 0.5 h is 0.8 ± 0.46 %ID/g.

What about the tissue uptake at 2 h (in vivo; 0.037 MBq, Muscle uptake) of the same compound?
Its tissue uptake at 2 h is 0.2 ± 0.15 %ID/g.

And the tissue uptake at 4 h (in vivo; 0.037 MBq, Muscle uptake)?
Its tissue uptake at 4 h is 0.15 ± 0.1 %ID/g.

What about the tissue uptake at 24 h (in vivo; 0.037 MBq, Muscle uptake) of the same compound?
Its tissue uptake at 24 h is 0.03 ± 0.02 %ID/g.

And the tissue uptake at 0.5 h (in vivo; 0.037 MBq, Pancreas uptake)?
Its tissue uptake at 0.5 h is 1.06 ± 0.33 %ID/g.

And the tissue uptake at 2 h (in vivo; 0.037 MBq, Pancreas uptake)?
The tissue uptake at 2 h was 0.2 ± 0.11 %ID/g.

And the tissue uptake at 4 h (in vivo; 0.037 MBq, Pancreas uptake)?
Its tissue uptake at 4 h is 0.1 ± 0.05 %ID/g.

What about the tissue uptake at 24 h (in vivo; 0.037 MBq, Pancreas uptake) of the same compound?
Its tissue uptake at 24 h is 0.1 ± 0.05 %ID/g.

And the tissue uptake at 0.5 h (in vivo; 0.037 MBq, Skin uptake)?
Its tissue uptake at 0.5 h is 5.43 ± 0.41 %ID/g.

And the tissue uptake at 2 h (in vivo; 0.037 MBq, Skin uptake)?
The tissue uptake at 2 h was 1.1 ± 0.39 %ID/g.

And the tissue uptake at 4 h (in vivo; 0.037 MBq, Skin uptake)?
The tissue uptake at 4 h was 0.53 ± 0.09 %ID/g.

And the tissue uptake at 24 h (in vivo; 0.037 MBq, Skin uptake)?
Its tissue uptake at 24 h is 0.24 ± 0.1 %ID/g.

What about the tissue uptake at 0.5 h (in vivo; 0.037 MBq, Spleen uptake) of the same compound?
Its tissue uptake at 0.5 h is 2.12 ± 0.57 %ID/g.

What about the tissue uptake at 2 h (in vivo; 0.037 MBq, Spleen uptake) of the same compound?
Its tissue uptake at 2 h is 0.61 ± 0.31 %ID/g.

What about the tissue uptake at 4 h (in vivo; 0.037 MBq, Spleen uptake) of the same compound?
The tissue uptake at 4 h was 0.25 ± 0.12 %ID/g.

And the tissue uptake at 24 h (in vivo; 0.037 MBq, Spleen uptake)?
Its tissue uptake at 24 h is 0.41 ± 0.14 %ID/g.

What about the tissue uptake at 0.5 h (in vivo; 0.037 MBq, Stomach uptake) of the same compound?
The tissue uptake at 0.5 h was 3.13 ± 0.62 %ID/g.

And the tissue uptake at 2 h (in vivo; 0.037 MBq, Stomach uptake)?
Its tissue uptake at 2 h is 1.63 ± 0.43 %ID/g.

What about the tissue uptake at 4 h (in vivo; 0.037 MBq, Stomach uptake) of the same compound?
The tissue uptake at 4 h was 1.41 ± 0.74 %ID/g.

What about the tissue uptake at 24 h (in vivo; 0.037 MBq, Stomach uptake) of the same compound?
Its tissue uptake at 24 h is 0.28 ± 0.09 %ID/g.

And the tissue uptake at 0.5 h (in vivo; 0.037 MBq, Tumor uptake)?
Its tissue uptake at 0.5 h is 8.46 ± 3.7 %ID/g.

And the tissue uptake at 2 h (in vivo; 0.037 MBq, Tumor uptake)?
The tissue uptake at 2 h was 18 ± 4.96 %ID/g.

What about the tissue uptake at 4 h (in vivo; 0.037 MBq, Tumor uptake) of the same compound?
The tissue uptake at 4 h was 14.1 ± 2.9 %ID/g.

And the tissue uptake at 24 h (in vivo; 0.037 MBq, Tumor uptake)?
The tissue uptake at 24 h was 10.2 ± 2.66 %ID/g.

What about the tissue to tissue ratio at 0.5 h (in vivo; [3]) of the same compound?
Its tissue to tissue ratio at 0.5 h is 1.56.

What about the tissue to tissue ratio at 2 h (in vivo; [3]) of the same compound?
The tissue to tissue ratio at 2 h was 15.6.

What about the tissue to tissue ratio at 4 h (in vivo; [3]) of the same compound?
The tissue to tissue ratio at 4 h was 35.2.

What about the tissue to tissue ratio at 24 h (in vivo; [3]) of the same compound?
The tissue to tissue ratio at 24 h was 63.5.

What about the tissue uptake dose at 2 h (in vivo; Bladder) of the same compound?
Its tissue uptake dose at 2 h is 77.8 ± 2.34 %ID.

What about the tissue uptake dose at 2 h (in vivo; Intestines) of the same compound?
Its tissue uptake dose at 2 h is 2.5 ± 0.16 %ID.

And the tissue to tissue ratio at 2 h (in vivo; Uptake ratio Tumor/Blood)?
The tissue to tissue ratio at 2 h was 2.41.

And the tissue to tissue ratio at 2 h (in vivo; Uptake ratio Tumor/Kidneys)?
Its tissue to tissue ratio at 2 h is 0.09.

What about the tissue to tissue ratio at 2 h (in vivo; Uptake ratio Tumor/Liver) of the same compound?
The tissue to tissue ratio at 2 h was 1.12.

What about the tissue to tissue ratio at 2 h (in vivo; Uptake ratio Tumor/Lung) of the same compound?
Its tissue to tissue ratio at 2 h is 1.73.

What about the tissue to tissue ratio at 2 h (in vivo; Uptake ratio Tumor/Muscle) of the same compound?
Its tissue to tissue ratio at 2 h is 10.4.

What about the “melanoma imaging by SPECT/CT” value [1] of the same compound?
The value was “visualized clearly; also recorded: clearly imaged”.
